Read-outs that look alike come from different tables or passages of the source.

For orientation: Kd means the equilibrium constant for the complex coming apart. The koff is the first-order rate constant of dissociation. A word on the kon: it is the rate constant with which the complex forms.

The target of experiment [1] is T1, Human_OSMR (human, UniProt Q99650 28-739).
T1 construct: Bought protein; also called hOSMR
T1 sequence: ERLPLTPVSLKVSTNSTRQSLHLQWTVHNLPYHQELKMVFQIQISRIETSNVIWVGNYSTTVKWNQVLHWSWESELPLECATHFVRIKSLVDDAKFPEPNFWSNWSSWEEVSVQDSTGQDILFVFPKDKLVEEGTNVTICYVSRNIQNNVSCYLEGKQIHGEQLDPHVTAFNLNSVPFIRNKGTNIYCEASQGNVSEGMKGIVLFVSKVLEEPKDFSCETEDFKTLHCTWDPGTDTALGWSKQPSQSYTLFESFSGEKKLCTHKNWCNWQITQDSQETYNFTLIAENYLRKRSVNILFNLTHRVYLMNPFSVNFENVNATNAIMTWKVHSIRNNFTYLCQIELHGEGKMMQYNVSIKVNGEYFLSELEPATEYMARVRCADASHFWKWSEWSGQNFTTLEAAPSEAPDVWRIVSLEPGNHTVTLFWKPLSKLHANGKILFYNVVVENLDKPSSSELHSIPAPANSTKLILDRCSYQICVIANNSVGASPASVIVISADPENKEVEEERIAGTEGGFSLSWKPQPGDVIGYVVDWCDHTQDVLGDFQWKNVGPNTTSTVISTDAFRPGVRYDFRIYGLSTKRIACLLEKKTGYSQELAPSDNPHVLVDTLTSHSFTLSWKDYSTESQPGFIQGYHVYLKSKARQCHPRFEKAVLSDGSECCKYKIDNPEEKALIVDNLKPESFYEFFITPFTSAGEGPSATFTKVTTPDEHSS
Briefly: SPR Biacore. As to the method:
(§1) The affinity with which candidate mAbs bind canine, feline, and human (SEQ ID NO: 122; Human_OSMR) (R&D Systems, Minneapolis, Minn.) OSMR was determined using surface plasmon resonance (SPR) on a Biacore system (Biacore Life Sciences (GE Healthcare), Uppsala, Sweden). To avoid affinity differences associated with differential surface preparation that can occur when immobilizing antibodies to surfaces; OSMR from each species was directly conjugated to individual surfaces. Immobilization was obtained by amine coupling 5 μg/mL OSMR using N-hydroxysuccinimide (NHS)/1-Ethyl-3-(3-dimethylaminopropyl) carbodiimide (EDC) chemistry. Chips were quenched with ethanolamine and the affinity with which all candidate mAbs bound to the immobilized OSMR was evaluated. All curves were fit to a 1:1 model. […] Results for affinity measurements are described herein.
Caninized (canine) and felinized (feline) anti-OSMR antibodies were cloned, expressed, and purified. The sequence of each speciated antibody in Table 6 is described in Example 8. Affinity of these speciated antibodies to canine and feline OSMR was measured using Biacore. Table 5 describes results of these Biacore experiments for speciated antibodies that expressed and bound canine and/or feline OSMR. As indicated in the table, this first round of speciation produced antibodies from the 19F07, 09E09, and 10F07 lineage that expressed and bound to their protein target. For comparison to the mouse and mouse:canine chimeras having the same CDRs as these speciated versions, see Tables 1 and 3 respectively. […] Detailed here are the binding kinetics for antibodies that exemplify this goal.

For experiment [2], the target named is T2, ANTIBODY EXPRESSION CONTROL.
T2 construct: also called mouse anti-canine antibody (capture reagent of the expression control ELISA)
Nature of the experiment: SPR Biacore, expression control. Summed up: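 Surface plasmon resonance with OSMR amine-coupled at 5 μg/mL via NHS/EDC, ethanolamine-quenched, and candidate mAbs flowed over as analyte. ka, kd and KD derived from 1:1 model fits.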

The target of experiment [3] is T1, Human_OSMR. Nature of the experiment: SPR Biacore, OSMR on chip. As to the method: as §1
For experiment [4], the target named is T3, canine OSMR on canine cells (canine, UniProt A0A8I3MI11 28-967).
T3 sequence: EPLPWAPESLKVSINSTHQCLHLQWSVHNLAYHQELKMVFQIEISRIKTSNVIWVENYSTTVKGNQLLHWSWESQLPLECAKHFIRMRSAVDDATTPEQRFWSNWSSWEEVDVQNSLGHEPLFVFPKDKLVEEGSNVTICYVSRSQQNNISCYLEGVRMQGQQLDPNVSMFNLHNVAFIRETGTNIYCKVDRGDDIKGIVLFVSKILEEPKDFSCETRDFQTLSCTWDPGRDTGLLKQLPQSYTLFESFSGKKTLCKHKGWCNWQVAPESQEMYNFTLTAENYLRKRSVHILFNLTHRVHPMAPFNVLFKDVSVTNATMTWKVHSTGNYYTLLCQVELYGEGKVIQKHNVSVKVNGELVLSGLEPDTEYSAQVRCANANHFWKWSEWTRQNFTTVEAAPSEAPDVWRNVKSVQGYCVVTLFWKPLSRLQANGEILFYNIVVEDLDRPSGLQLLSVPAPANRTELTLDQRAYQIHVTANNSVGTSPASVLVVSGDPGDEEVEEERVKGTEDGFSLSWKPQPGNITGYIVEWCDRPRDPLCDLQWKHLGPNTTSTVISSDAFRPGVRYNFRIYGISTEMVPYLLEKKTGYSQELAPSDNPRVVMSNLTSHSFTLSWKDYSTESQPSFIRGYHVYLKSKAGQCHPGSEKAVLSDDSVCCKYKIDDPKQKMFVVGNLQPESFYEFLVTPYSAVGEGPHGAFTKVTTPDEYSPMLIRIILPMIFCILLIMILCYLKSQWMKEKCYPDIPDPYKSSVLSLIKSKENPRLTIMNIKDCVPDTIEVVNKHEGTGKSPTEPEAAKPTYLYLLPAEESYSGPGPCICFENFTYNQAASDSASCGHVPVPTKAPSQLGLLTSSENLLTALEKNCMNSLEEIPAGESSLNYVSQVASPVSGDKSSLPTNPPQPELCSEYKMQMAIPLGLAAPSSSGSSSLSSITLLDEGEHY
Briefly: cell-based or functional assay.

The target in experiment [5] is T3, canine OSMR on canine cells. Nature of the experiment: cell-based or functional assay. This is another data set of the same source.
For experiment [6], the target named is T4, feline OSMR on feline Fcwf-4 cells (feline, UniProt A0ABI8A843 28-960).
T4 sequence: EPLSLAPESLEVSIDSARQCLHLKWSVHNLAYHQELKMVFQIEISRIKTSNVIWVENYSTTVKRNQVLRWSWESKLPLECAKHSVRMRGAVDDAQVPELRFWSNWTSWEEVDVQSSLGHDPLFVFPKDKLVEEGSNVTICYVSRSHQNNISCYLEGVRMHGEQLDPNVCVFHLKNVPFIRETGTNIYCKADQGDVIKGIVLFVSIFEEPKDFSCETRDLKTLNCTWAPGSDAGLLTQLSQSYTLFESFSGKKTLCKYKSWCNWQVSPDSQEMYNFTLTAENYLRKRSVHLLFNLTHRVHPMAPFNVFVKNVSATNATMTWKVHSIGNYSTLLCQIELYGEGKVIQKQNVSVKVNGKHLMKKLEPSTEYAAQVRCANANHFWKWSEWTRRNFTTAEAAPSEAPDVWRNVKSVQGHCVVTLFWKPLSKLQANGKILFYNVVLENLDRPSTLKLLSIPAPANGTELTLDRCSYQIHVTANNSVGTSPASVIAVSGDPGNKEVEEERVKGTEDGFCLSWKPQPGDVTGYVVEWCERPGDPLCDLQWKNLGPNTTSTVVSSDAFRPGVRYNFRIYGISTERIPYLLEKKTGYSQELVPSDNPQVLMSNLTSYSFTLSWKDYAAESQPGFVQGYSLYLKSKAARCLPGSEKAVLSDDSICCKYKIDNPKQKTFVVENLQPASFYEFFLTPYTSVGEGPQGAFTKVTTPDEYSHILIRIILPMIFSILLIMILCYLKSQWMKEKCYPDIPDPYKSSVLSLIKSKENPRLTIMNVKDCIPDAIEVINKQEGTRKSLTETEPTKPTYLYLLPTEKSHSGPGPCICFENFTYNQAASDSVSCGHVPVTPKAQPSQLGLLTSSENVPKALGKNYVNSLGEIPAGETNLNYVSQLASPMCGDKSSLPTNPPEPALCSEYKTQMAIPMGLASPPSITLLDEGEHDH
Nature of the experiment: cell-based or functional assay.

Experiment [7] deals with T3, canine OSMR on canine cells. Briefly: cell-based or functional assay. This is another data set of the same source.
For experiment [8], the target named is T4, feline OSMR on feline Fcwf-4 cells. Nature of the experiment: cell-based or functional assay. The source holds these as a separate data set.
Experiment [9] has as its target T1, Human_OSMR. Briefly: SPR Biacore, OSMR on chip. The source holds these as a separate data set. Background: In SPR one partner is held on a chip, and binding of the other changes the refractive index at the surface.

B1: Canine_OSM (ligand)
chain: SCSDKYPELLGQLQKQADFMQHTNTLLDLYIRSQGLDKNGLKEHCRERPGAFPSKDALQRLSRRVFLRTLDTTLGQVLLRLAALEQDIPKAQDLEMLSGVKLNIRGFKNNIHCMAQLLPGSSETTEPTPTSPGASPSPTPTLDTFQRRLEGCRFLHGYHRFMRSVGQVFREWGKSLSRSRR
notes: also called cOSM
For B1, in the experiment with Human_OSMR [1], binding was characterised by a dissociation constant (Kd) of 38.1 nM, the koff worked out at 0.0039 s⁻¹ and the kon is 102000 M⁻¹ s⁻¹.

B2: mouse: canine 02D09 chimera (antibody, V domains shown)
VH: EVQLVESGGGLVKPGGSLTLSCAASGFTFSDYGMHWLRQAPEKGLEWVAYISSGSRAVFFADTVKGRFTISRDNAKNTLFLQMTSLRSDDTAMYYCARDRYDGRGFAYWGQGTLVTVSA
VL: DIVLTQSPATLSVTPGDSVSLSCRASQSISNNLHWYQQTSHESPRLLITYASQSISGIPSRFSGSGSGTDFTLSINSVETEDFGMYFCQQSNSWPLTFGAGTKLELKR
notes: Mouse variable domains on canine IgG constant regions; also called 02D09 (Mouse:Canine); chimeric 02D09
As to B2, in experiment [2], the dissociation constant Kd stood at 0.6 nM, the koff amounted to 9.15e-05 s⁻¹ and the association rate constant (kon) was determined as 153000 M⁻¹ s⁻¹. In the experiment with Human_OSMR [3], the binding result was “no binding”. Also, in [4], the “IC50, inhibition of canine IL-31 pSTAT3 signaling, canine DH82 cells” value was found to be 97.7 µg/ml. The “IC50, inhibition of canine IL-31 pSTAT3 signaling, canine DH82 cells” value in experiment [5] worked out at 97.7 µg/ml.

B3: mouse: canine 09E09 chimera (antibody, V domains shown)
VH: DVKLVESGEGLVKPGGSLKLSCAASGFTFSSYAMSWVRQTPEKRLEWVAYISSGGDYIYYADTVKGRFTISRDNARNTLYLQMSSLKSEDTAMYYCTRDPITGTFAYWGQGTLVTVSA
VL: DLQMTQTTSSLSASLGDRVTISCRASQDINNYLNWYQQKPDGTVKLLIYYTSTLHSGVPSRFSGSGSGTDYSLTISNLEQEDIATYFCQQGNTLPWTFGGGTKLEIKR
notes: Mouse variable domains on canine IgG constant regions; also called 09E09 (Mouse:Canine); mouse:dog chimera 09E09
Consider B3, for which, in experiment [2], the Kd came out at 0.0023 nM, the koff is 8.68e-07 s⁻¹ and the kon came out at 374000 M⁻¹ s⁻¹. Moreover, the binding result in the experiment with Human_OSMR [3] is “no binding”. For the same molecule, the “IC50, inhibition of canine IL-31 pSTAT3 signaling, canine DH82 cells” value in [4] was found to be 31.3 µg/ml. Moreover, the “IC50, inhibition of canine IL-31 pSTAT3 signaling, canine DH82 cells” value in experiment [5] is 47.5 µg/ml.

B4: Mu_19F07 (antibody, V domains shown)
VH: EVKLVESEGGLVQPGSSMKLSCTASGFTFSDYYMAWVRQVPEKGLEWVANINYDGSSTYYLDSLKSRFIISRDNAKNILYLQMSSLKSEDTATYYCARGLTWDFDVWGTGTTVTVSS
VL: DIVMTQSHKFMSPSVGDRVSITCKASQDVDTAVAWYQQKPGQSPKLLIYLASTRHTGVPDRFTGSGSGTDFTLTISNVQSEDLADYFCQQYSRFPLTFGAGTKLELK
notes: Mouse hybridoma IgG
Take B4: in experiment [4], the “IC50, inhibition of canine IL-31 pSTAT3 signaling, canine DH82 cells” value worked out at 0.07 µg/ml and the “IC50, inhibition of canine OSM pSTAT3 signaling, canine DH82 cells” value was determined as 0.27 µg/ml. Further, in [6], the “IC50, inhibition of canine OSM pSTAT3 signaling, feline Fcwf-4 cells” value turned out to be 0.68 µg/ml and the “IC50, inhibition of feline IL-31 pSTAT3 signaling, feline Fcwf-4 cells” value came out at 0.42 µg/ml. In experiment [7], the “% inh of canine IL-31 pSTAT3 signaling, canine DH82 cells” value is 87 % inh and the “IC50, inhibition of canine OSM pSTAT3 signaling, canine DH82 cells” value stood at 0.27 µg/ml. For the same molecule, the “% inh of feline IL-31 pSTAT3 signaling, feline Fcwf-4 cells” value in experiment [8] worked out at 90 % inh. The binding result with Human_OSMR [9] is listed as “no binding”.

B5: mouse: canine 19F07 chimera (antibody, V domains shown)
VH: EVKLVESEGGLVQPGSSMKLSCTASGFTFSDYYMAWVRQVPEKGLEWVANINYDGSSTYYLDSLKSRFIISRDNAKNILYLQMSSLKSEDTATYYCARGLTWDFDVWGTGTTVTVSS
VL: DIVMTQSHKFMSPSVGDRVSITCKASQDVDTAVAWYQQKPGQSPKLLIYLASTRHTGVPDRFTGSGSGTDFTLTISNVQSEDLADYFCQQYSRFPLTFGAGTKLELKR
notes: Mouse variable domains on canine IgG constant regions; also called 19F07 (Mouse:Canine); mouse:dog chimera 19F07
For B5, in experiment [2], the dissociation constant Kd worked out at 0.082 nM, the koff is 2.29e-05 s⁻¹ and the kon came to 281000 M⁻¹ s⁻¹. Further, the binding result with Human_OSMR [3] is listed as “no binding”. For the same molecule, in experiment [4], the “IC50, inhibition of canine IL-31 pSTAT3 signaling, canine DH82 cells” value was found to be 0.28 µg/ml and the “IC50, inhibition of canine OSM pSTAT3 signaling, canine DH82 cells” value was found to be 0.26 µg/ml.

The values are drawn from US20220177594A1 (ZOETIS SERVICES, published 2022).
